Data on 1 molecule can be found in patent publication US20210380703A1.

For assay [1], the target named is human ACVR2A (human) (UniProt P27037). The assay can be described thus: ELISA. (In an ELISA, binding on a coated surface is turned into a signal by an enzyme label.)
The target of assay [2] is Mouse ACVR2A (mouse) (UniProt P27038). In words: ELISA.
For assay [3], the target named is human Fc (human). In words: ELISA, negative control.

Sequence of human ACVR2A (human) (P27037 20-135 limits assumed): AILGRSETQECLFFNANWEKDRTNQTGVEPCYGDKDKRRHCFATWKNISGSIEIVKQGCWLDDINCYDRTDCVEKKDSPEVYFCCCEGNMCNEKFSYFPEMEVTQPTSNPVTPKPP
Sequence of Mouse ACVR2A (mouse) (P27038 20-135 limits assumed): as the sequence (P27037 20-135 limits assumed) above, with K20R, V73I counted along it

B1: 369_F08 (antibody, V domains shown)
VH: EVQLLESGGGLVQPGGSLRLSCAASGFTFSDYGMHWVRQAPGKGLEWVSGINYNSGYTSYADSVKGRFTISRDNSKNTLYLQMNSLRAEDTAVYYCARGANWHDTALDYWGQGTLVTVSS
VL: DIQMTQSPSSLSASVGDRVTITCRASQSILSYLNWYQQKPGKAPKLLIYAASSLQSGVPSRFSGSGSGTDFTLTISSLQPEDFATYYCQQSYDLPLTFGGGTKVEIK
Turning to B1, the optical density in assay [1] was determined as 0.503 OD; in assay [2], 0.589 OD; in assay [3], 0.302 OD.
